Experimental data as given in paper PMC6827302 (2019).
Values belong to the binder of their own block, whether it stands above or below them.

Target: unlabeled F-actin from rabbit skeletal muscle (rabbit, UniProt P68135 1-377)

- Kd: 7 µM
B1: human cMyBP-C C0–C2 3SD (S275D, S284D, S304D) (domain or fragment)
chain: MPEPGKKPVSAFSKKPRSVEVAAGSPAVFEAETERAGVKVRWQRGGSDISASNKYGLATEGTRHTLTVREVGPADQGSYAVIAGSSKVKFDLKVIEAEKAEPMLAPAPAPAEATGAPGEAPAPAAELGESAPSPKGSSSAALNGPTPGAPDDPIGLFVMRPQDGEVTVGGSITFSARVAGASLLKPPVVKWFKGKWVDLSSKVGQHLQLHDSYDRASKVYLFELHITDAQPAFTGSYRCEVSTKDKFDCSNFNLTVHEAMGTGDLDLLSAFRRTDLAGGGRRIDDSHEDTGILDFSSLLKKRDDFRTPRDSKLEAPAEEDVWEILRQAPPSEYERIAFQYGVTDLRGMLKRLKGMRRDEKKSTAFQKKLEPAYQVSKGHKIRLTVELADHDAEVKWLKNGQEIQMSGSKYIFESIGAKRTLTISQCSLADDAAYQCVVGGEKCSTELFVKEPPVLITRPLEDQLVMVGQRVEFECEVSEEGAQVKWLKDGVELTREETFKYRFKKDGQRHHLIINEAMLEDAGHYALCTSGGQALAELIVQEKKLEVYQSIADLMVGAKDQAVFKCEVSDENVRGVWLKNGKELVPDSRIKVSHIGRVHKLTIDDVTPADEADYSFVPEGFACNLSAKLHFMEVKIDFVPRQEPPKIHLDCPGRIPDTIVVVAGNKLRLDVPISGDPAPTVIWQKAITQGNKAPARPAPDAPEDTGDSDEWVFDKKLLCETEGRVRVETTKDRSIFTVEGAEKEDEGVYTVTVKNPVGEDQVNLTVKVIDVPDAPAAPKISNVGEDSCTVQWEPPAYDGGQPILGYILERKKKKSYRWMRLNFDLIQELSHEARRMIEGVVYEMRVYAVNAIGMSRPSPASQPFMPIGPPSEPTHLAVEDVSDTTVSLKWRPPERVGAGGLDGYSVEYCPEGCSEWVAALQGLTEHTSILVKDLPTGARLLFRVRAHNMAGPGAPVTTTEPVTVQEILQRPRLQLPRHLRQTIQKKVGEPVNLLIPFQGKPRPQVTWTKEGQPLAGEEVSIRNSPTDTILFIRAARRVHSGTYQVTVRIENMEDKATLVLQVVDKPSPPQDLRVTDAWGLNVALEWKPPQDVGNTELWGYTVQKADKKTMEWFTVLEHYRRTHCVVPELIIGNGYYFRVFSQNMVGFSDRAATTKEPVFIPRPGITYEPPNYKALDFSEAPSFTQPLVNRSVIAGYTAMLCCAVRGSPKPKISWFKNGLDLGEDARFRMFSKQGVLTLEIRKPCPFDGGIYVCRATNLQGEARCECRLEVRVPQ

- Kd: 32 µM
B2: human cMyBP-C N-terminal domains C0–C1 (domain or fragment)
chain: MPEPGKKPVSAFSKKPRSVEVAAGSPAVFEAETERAGVKVRWQRGGSDISASNKYGLATEGTRHTLTVREVGPADQGSYAVIAGSSKVKFDLKVIEAEKAEPMLAPAPAPAEATGAPGEAPAPAAELGESAPSPKGSSSAALNGPTPGAPDDPIGLFVMRPQDGEVTVGGSITFSARVAGASLLKPPVVKWFKGKWVDLSSKVGQHLQLHDSYDRASKVYLFELHITDAQPAFTGSYRCEVSTKDKFDCSNFNLTV
